Like-named read-outs stand apart in the source and are kept apart here.
Tests used:
human EGFR [1] = biological target: T1, human EGFR (human, UniProt P00533 25-1210); test: flow cytometry competition on A431 cells; competitor: 10 nM biotinylated TGFα
human EGFR [2] = biological target: T1, human EGFR; test: flow cytometry competition on MDA-MB468 cells; competed: 0.3 nM biotinylated 528 antibody; streptavidin-Alexa 488 detection
Method: (§1) To distinguish binding epitopes of anti-EGFR antibodies, antibody binding competition assays were done using flow cytometry. […] In brief, the biotinylated antibody was pre-mixed with varying concentration of ‘competing’ antibodies. The antibody mixture was then incubated with cells on ice for 2h. […] After washing, the cells were fixed and analyzed in FACScalibur. The geometric mean fluorescence intensity was plotted against antibody concentration in semi-log plot and normalized so that 100% represents the maximal binding of the biotinylated antibody in absence of other antibody and 0% represents the background staining in absence of the biotinylated antibody.

human EGFR [3] = biological target: T1, human EGFR; test: cell-based or functional assay
human EGFR [4] = biological target: T1, human EGFR; test: cell-based or functional assay; remark: listed apart in the source
human EGFR [5] = biological target: T1, human EGFR; test: cell-based or functional assay; remark: listed apart in the source
chEGFRdIII-Fc [6] = biological target: T2, chEGFRdIII-Fc (murine; human, UniProt Q01279 334-483; P00533 484-505; Q01279 506-525); test: ELISA on the EGFR ECD-Fc construct (A450)
T2 construct: range 310-459;range 460-481;range 482-501; the split into three pieces follows from that; also called human/murine EGFR chimera; not shown: murine IgG2A hinge, CH2, and CH3 region

huEGFR-Fc [7] = biological target: T3, huEGFR-Fc (human; murine, UniProt P00533 25-645); test: ELISA on the EGFR ECD-Fc construct (A450)
T3 construct: extracellular domain; also called human EGFR ECD Fc fusion; wild type human EGFR; not shown: murine IgG2A hinge, CH2, and CH3 region (pmuFc2ANL vector)

huEGFRdIII-Fc [8] = biological target: T4, huEGFRdIII-Fc (human; murine, UniProt P00533 334-525); test: ELISA on the EGFR ECD-Fc construct (A450)
T4 construct: range 310-501; Residue numbers count on the mature receptor, not on the precursor; also called human EGFR domain III; not shown: murine IgG2A hinge, CH2, and CH3 region

human EGFR [9] = biological target: T1, human EGFR; test: flow cytometry competition on MDA-MB468 cells; competed: 0.2 nM biotinylated cetuximab; streptavidin-Alexa 488 detection
Method: as §1

chEGFRdIII-Fc [10] = biological target: T2, chEGFRdIII-Fc; test: ELISA on the EGFR ECD-Fc construct (A450); remark: listed apart in the source
huEGFR-Fc [11] = biological target: T3, huEGFR-Fc; test: ELISA on the EGFR ECD-Fc construct (A450); remark: listed apart in the source
muEGFRdIII-Fc [12] = biological target: T5, muEGFRdIII-Fc (murine, UniProt Q01279 334-525); test: ELISA on the EGFR ECD-Fc construct (A450)
T5 construct: range 310-501; Residue numbers count on the mature receptor, not on the precursor; also called murine EGFR domain III; not shown: murine IgG2A hinge, CH2, and CH3 region

huEGFRdIII-Fc [13] = biological target: T4, huEGFRdIII-Fc; test: ELISA on the EGFR ECD-Fc construct (A450); remark: listed apart in the source
human EGFR [14] = biological target: T1, human EGFR; test: flow cytometry competition on A431 cells; competitor: 1.8 nM biotinylated EGF
Method: To examine if the EGFR antibodies inhibit the ligand binding to the EGFR, the binding of biotinylated EGFR ligand to the A431 cells was measured by flow cytometry in the presence of anti-EGFR antibodies. […] Prior to competition assay, the binding curve of the biotinylated ligands was established. […] Cells were then washed twice with FACS buffer and incubated with streptavidin-APC conjugate (Jackson Immunoresearch) for 15 min on ice. Cells were washed twice with FACS buffer and analyzed in FACS Calibur (BD Bioscience) using FlowJo program (Tree Star). The geometric mean fluorescence intensities were plotted against the antibody concentration in a semi-log plot.

chEGFRdIII-Fc [15] = biological target: T2, chEGFRdIII-Fc; test: ELISA on the EGFR ECD-Fc construct (A450); remark: listed apart in the source
huEGFR-Fc [16] = biological target: T3, huEGFR-Fc; test: ELISA on the EGFR ECD-Fc construct (A450); remark: listed apart in the source
muEGFRdIII-Fc [17] = biological target: T5, muEGFRdIII-Fc; test: ELISA on the EGFR ECD-Fc construct (A450); remark: listed apart in the source
huEGFRdIII-Fc [18] = biological target: T4, huEGFRdIII-Fc; test: ELISA on the EGFR ECD-Fc construct (A450); remark: listed apart in the source

Molecule	EC50 (human EGFR [1])	IC50 (read off the curve) (human EGFR [2])	EC50 (nM), anti-proliferative activity in NCI-H292 cells (human EGFR [3])	EC50 (nM), anti-proliferative activity in HCC827 cells (human EGFR [4])	Maximal inhibition (%), HCC827 cells (human EGFR [4])	EC50 (nM), anti-proliferative activity in NCI-H292 cells (human EGFR [5])	EC50 (chEGFRdIII-Fc [6])	EC50 (huEGFR-Fc [7])	EC50 (huEGFRdIII-Fc [8])	IC50 (read off the curve) (human EGFR [9])	EC50 (chEGFRdIII-Fc [10])	EC50 (huEGFR-Fc [11])	binding result (muEGFRdIII-Fc [12])	EC50 (huEGFRdIII-Fc [13])	EC50 (human EGFR [14])	EC50 (chEGFRdIII-Fc [15])	EC50 (huEGFR-Fc [16])	binding result (muEGFRdIII-Fc [17])	EC50 (huEGFRdIII-Fc [18])
TGFα (ligand)	1.34 nM	–	–	–	–	–	–	–	–	–	–	–	–	–	–	–	–	–	–
muEGFR-7 antibody (antibody, V domains shown, Murine hybridoma antibody (ATCC PTA-11332)) VH: QVQLQQSGAELARPGASVKLSCKASGYTFTSYWMQWVKQRPGQGLECIGTIYPGDGDTTYTQKFKGKATLTADKSSSTAYMQLSSLASEDSAVYYCARYDAPGYAMDYWGQGTSVTVSS VL: DIQMTQSPSSLSASLGGKVTITCKASQDINNYLAWYQHKPGKGPRLLIHYTSTLHPGIPSRFSGSGSGRDYSFSISNLEPEDIATYYCLQYDNLLYTFGGGTKLEIKR	–	~2 nM	0.4 nM	0.03 nM	72%	0.21 nM	0.294 nM	0.0328 nM	0.043 nM	~2 nM	–	–	–	–	–	–	–	–	–
muEGFR-6 antibody (antibody, V domains shown, Murine hybridoma antibody (ATCC PTA-11331)) VH: QVQLQQSGAELARPGASVKLSCKASGYTFTSYWMQWVKQRPGQGLECIGALYPGDGDARYTQKFKGKATLTADRSSSTAYMQLSSLASEDSAVYYCARYDAPGYAMDYWGQGTSVTVAS VL: DIQMTQSPSSLSASLGGKVTITCKASQDINNYIAWYQHKPGKGPRLLIHYTSTLHPGIPSRFSGSGSGRDYSFSISNLEPEDIATYYCLQYDNLLYTFGGGTKLEIKR	1.18 nM	~2 nM	5.6 nM	0.3 nM	72%	2.59 nM	–	–	–	~2 nM	0.867 nM	0.0484 nM	no binding (tested: 10^-7 M)	0.0694 nM	2.55 nM	–	–	–	–
muEGFR-12 antibody (antibody, V domains shown, Murine hybridoma antibody (ATCC PTA-11333)) VH: QVQLQQSGTELARPGASVKLSCKASGYTFTSYWMQWVKQRPGQGLECIGTIYPGDGDTRYIQKFKGKATLTADKSSSTAYMQLSSLASEDSAVYYCARYDAPGYAMDYWGQGTSVTVSS VL: DVQITQSPSYLAASPGETITINCRASKSISKYLAWYQEKPGKTNKLLIYSGSTLQSGIPSRFSGSGSGTDFTLTISSLEPEDFAMYYCQQHNEYPWTFGGGTKLEIK	1.34 nM	~2 nM	–	0.7 nM	63%	–	–	–	–	~2 nM	–	–	–	–	2.93 nM	1.24 nM	0.0485 nM	no binding (tested: 10^-7 M)	0.0572 nM

Source: patent US20140099308A1 (IMMUNOGEN, published 2014)
